Measurements reported in US20220211812A1 (Bristol-Myers Squibb, published 2022).
Square brackets hold non-standard residues; d marks the D form. Ends that are not written are not given here. Phe(4-Ac) = CC(=O)c1ccc(C[C@H](N)C(=O)O)cc1

B1: AQ1-KKKKKK-Glu^γ-C13-COOH (ligand)
chain 1: XLYSALANKCCHVGCTKRSLARFC
chain 2: ASWMEEVIKLCGRELVRAQIAICGMSTWS
peptide: KKKKKKE
modifications: not fully specified; Glu^γ bonded by amide to fatty acid -C13-COOH; oxime-linked to pAcF of the A chain; pAcF (para-acetyl-L-phenylalanine) at position 1, oxime-linked to PK enhancer KKKKKK-Glu^γ-C13-COOH
B2: AQ1-KKSGGSGG-Glu^α-C13-COOH (ligand)
chain 1: XLYSALANKCCHVGCTKRSLARFC
chain 2: ASWMEEVIKLCGRELVRAQIAICGMSTWS
peptide: KKSGGSGGE
modifications: not fully specified; Glu^α linked to fatty acid -C13-COOH; oxime-linked to pAcF of the A chain; pAcF (para-acetyl-L-phenylalanine) at position 1, oxime-linked to PK enhancer KKSGGSGG-Glu^α-C13-COOH
B3: AQ1-EEEGGG-Glu^γ-C13-CH3 (ligand)
chain 1: XLYSALANKCCHVGCTKRSLARFC
chain 2: ASWMEEVIKLCGRELVRAQIAICGMSTWS
peptide: EEEGGGE
modifications: not fully specified; Glu^γ bonded by amide to fatty acid -C13-CH3; oxime-linked to pAcF of the A chain; pAcF (para-acetyl-L-phenylalanine) at position 1, oxime-linked to PK enhancer EEEGGG-Glu^γ-C13-CH3
B4: AQ1-GETGSSGEGT-Glu^γ-C13-COOH (ligand)
chain 1: XLYSALANKCCHVGCTKRSLARFC
chain 2: ASWMEEVIKLCGRELVRAQIAICGMSTWS
peptide: GETGSSGEGTE
modifications: not fully specified; Glu^γ bonded by amide to fatty acid -C13-COOH; oxime-linked to pAcF of the A chain; pAcF (para-acetyl-L-phenylalanine) at position 1, oxime-linked to PK enhancer GETGSSGEGT-Glu^γ-C13-COOH
B5: AQ1-KKKGGG-Glu^γ-C13-COOH (ligand)
chain 1: XLYSALANKCCHVGCTKRSLARFC
chain 2: ASWMEEVIKLCGRELVRAQIAICGMSTWS
peptide: KKKGGGE
modifications: not fully specified; Glu^γ bonded by amide to fatty acid -C13-COOH; oxime-linked to pAcF of the A chain; pAcF (para-acetyl-L-phenylalanine) at position 1, oxime-linked to PK enhancer KKKGGG-Glu^γ-C13-COOH
B6: WT-RLX (ligand)
chain 1: QLYSALANKCCHVGCTKRSLARFC
chain 2: ASWMEEVIKLCGRELVRAQIAICGMSTWS
modifications: disulfide (positions not given here); ends not checked
B7: RLX-AQ1 (ligand)
chain 1: XLYSALANKCCHVGCTKRSLARFC
chain 2: ASWMEEVIKLCGRELVRAQIAICGMSTWS
modifications: pAcF (para-acetyl-L-phenylalanine) at position 1
B8: AQ1-GGGGS-Glu^γ-C13-COOH (ligand)
chain 1: XLYSALANKCCHVGCTKRSLARFC
chain 2: ASWMEEVIKLCGRELVRAQIAICGMSTWS
peptide: GGGGSE
modifications: not fully specified; Glu^γ bonded by amide to fatty acid -C13-COOH; oxime-linked to pAcF of the A chain; pAcF (para-acetyl-L-phenylalanine) at position 1, oxime-linked to PK enhancer GGGGS-Glu^γ-C13-COOH
B9: AQ1-GSHHHHHGS-Glu^γ-C13-COOH (ligand)
chain 1: XLYSALANKCCHVGCTKRSLARFC
chain 2: ASWMEEVIKLCGRELVRAQIAICGMSTWS
peptide: GSHHHHHGSE
modifications: not fully specified; Glu^γ bonded by amide to fatty acid -C13-COOH; oxime-linked to pAcF of the A chain; pAcF (para-acetyl-L-phenylalanine) at position 1, oxime-linked to PK enhancer GSHHHHHGS-Glu^γ-C13-COOH
B10: BM25/AN1-C13-CH3 (ligand)
chain 1: NLYSALANKCCHVGCTKRSLARFC
chain 2: ASWMEEVIKLCGRELVRAQIAICG[Phe(4-Ac)]STWS
modifications: disulfide (positions not given here); not fully specified (some residues); ends not checked; also: PK enhancer C13-CH3 oxime-linked to pAcF25
B11: AQ1-EEEGGG-Glu^γ-C17-COOH (ligand)
chain 1: XLYSALANKCCHVGCTKRSLARFC
chain 2: ASWMEEVIKLCGRELVRAQIAICGMSTWS
peptide: EEEGGGE
modifications: not fully specified; Glu^γ bonded by amide to fatty acid -C17-COOH; oxime-linked to pAcF of the A chain; pAcF (para-acetyl-L-phenylalanine) at position 1, oxime-linked to PK enhancer EEEGGG-Glu^γ-C17-COOH
B12: AQ1-EEEEPEEEEPEEEEPEEEE-Glu^γ-C15-CH3 (ligand)
chain 1: XLYSALANKCCHVGCTKRSLARFC
chain 2: ASWMEEVIKLCGRELVRAQIAICGMSTWS
peptide: EEEEPEEEEPEEEEPEEEEE
modifications: not fully specified; Glu^γ bonded by amide to fatty acid -C15-CH3; oxime-linked to pAcF of the A chain; pAcF (para-acetyl-L-phenylalanine) at position 1, oxime-linked to PK enhancer EEEEPEEEEPEEEEPEEEE-Glu^γ-C15-CH3
B13: AQ1-DRDDRD-C13-COOH (ligand)
chain 1: XLYSALANKCCHVGCTKRSLARFC
chain 2: ASWMEEVIKLCGRELVRAQIAICGMSTWS
peptide: DRDDRD
modifications: linked to fatty acid -C13-COOH; oxime-linked to pAcF of the A chain; pAcF (para-acetyl-L-phenylalanine) at position 1, oxime-linked to PK enhancer DRDDRD-C13-COOH
B14: AQ1-EEEEEE-Glu^γ-C15-COOH (ligand)
chain 1: XLYSALANKCCHVGCTKRSLARFC
chain 2: ASWMEEVIKLCGRELVRAQIAICGMSTWS
peptide: EEEEEEE
modifications: not fully specified; Glu^γ bonded by amide to fatty acid -C15-COOH; oxime-linked to pAcF of the A chain; pAcF (para-acetyl-L-phenylalanine) at position 1, oxime-linked to PK enhancer EEEEEE-Glu^γ-C15-COOH
B15: AQ1-EEEGGG-Glu^γ-C14-COOH (ligand)
chain 1: XLYSALANKCCHVGCTKRSLARFC
chain 2: ASWMEEVIKLCGRELVRAQIAICGMSTWS
peptide: EEEGGGE
modifications: not fully specified; Glu^γ bonded by amide to fatty acid -C14-COOH; oxime-linked to pAcF of the A chain; pAcF (para-acetyl-L-phenylalanine) at position 1, oxime-linked to PK enhancer EEEGGG-Glu^γ-C14-COOH
B16: RLX-BM25/AN1 (ligand)
chain 1: NLYSALANKCCHVGCTKRSLARFC
chain 2: ASWMEEVIKLCGRELVRAQIAICG[Phe(4-Ac)]STWS
modifications: disulfide (positions not given here); ends not checked
B17: AQ1-EEEGGG-Glu^γ-C15-CH3 (ligand)
chain 1: XLYSALANKCCHVGCTKRSLARFC
chain 2: ASWMEEVIKLCGRELVRAQIAICGMSTWS
peptide: EEEGGGE
modifications: not fully specified; Glu^γ bonded by amide to fatty acid -C15-CH3; oxime-linked to pAcF of the A chain; pAcF (para-acetyl-L-phenylalanine) at position 1, oxime-linked to PK enhancer EEEGGG-Glu^γ-C15-CH3
B18: AQ1-KSGGSGG-Glu^γ-C13-COOH (ligand)
chain 1: XLYSALANKCCHVGCTKRSLARFC
chain 2: ASWMEEVIKLCGRELVRAQIAICGMSTWS
peptide: KSGGSGGE
modifications: not fully specified; Glu^γ bonded by amide to fatty acid -C13-COOH; oxime-linked to pAcF of the A chain; pAcF (para-acetyl-L-phenylalanine) at position 1, oxime-linked to PK enhancer KSGGSGG-Glu^γ-C13-COOH
B19: AQ1-EEEEPEEEEPEEEEPEEEE-Glu^γ-C14-CH3 (ligand)
chain 1: XLYSALANKCCHVGCTKRSLARFC
chain 2: ASWMEEVIKLCGRELVRAQIAICGMSTWS
peptide: EEEEPEEEEPEEEEPEEEEE
modifications: not fully specified; Glu^γ bonded by amide to fatty acid -C14-CH3; oxime-linked to pAcF of the A chain; pAcF (para-acetyl-L-phenylalanine) at position 1, oxime-linked to PK enhancer EEEEPEEEEPEEEEPEEEE-Glu^γ-C14-CH3
B20: AQ1-EESGGSGG-Glu^γ-C13-COOH (ligand)
chain 1: XLYSALANKCCHVGCTKRSLARFC
chain 2: ASWMEEVIKLCGRELVRAQIAICGMSTWS
peptide: EESGGSGGE
modifications: not fully specified; Glu^γ bonded by amide to fatty acid -C13-COOH; oxime-linked to pAcF of the A chain; pAcF (para-acetyl-L-phenylalanine) at position 1, oxime-linked to PK enhancer EESGGSGG-Glu^γ-C13-COOH

Molecular target: T1, human RXFP1 receptor (human, UniProt Q9HBX9 1-757)
T1 sequence (looked up): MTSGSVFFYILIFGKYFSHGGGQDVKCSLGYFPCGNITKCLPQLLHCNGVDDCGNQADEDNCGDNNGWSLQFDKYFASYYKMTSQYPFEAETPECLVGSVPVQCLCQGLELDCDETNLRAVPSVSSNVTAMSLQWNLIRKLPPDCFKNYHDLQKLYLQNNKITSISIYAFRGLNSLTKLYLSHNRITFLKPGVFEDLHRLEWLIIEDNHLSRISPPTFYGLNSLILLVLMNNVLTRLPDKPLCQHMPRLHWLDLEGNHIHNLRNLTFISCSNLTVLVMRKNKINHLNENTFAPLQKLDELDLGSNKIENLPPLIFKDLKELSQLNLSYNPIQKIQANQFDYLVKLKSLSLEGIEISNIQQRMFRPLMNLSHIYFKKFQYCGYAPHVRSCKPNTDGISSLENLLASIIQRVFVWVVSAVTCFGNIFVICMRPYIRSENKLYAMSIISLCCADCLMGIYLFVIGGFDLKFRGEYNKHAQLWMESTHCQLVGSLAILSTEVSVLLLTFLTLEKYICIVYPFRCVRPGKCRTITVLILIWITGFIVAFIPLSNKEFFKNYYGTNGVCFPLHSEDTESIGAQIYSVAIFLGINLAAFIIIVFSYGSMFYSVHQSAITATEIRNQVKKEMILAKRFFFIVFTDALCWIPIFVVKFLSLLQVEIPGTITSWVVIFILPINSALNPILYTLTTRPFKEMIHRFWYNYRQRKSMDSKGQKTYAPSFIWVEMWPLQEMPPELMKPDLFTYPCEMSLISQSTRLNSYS
Assay: cell-based or functional assay

Row | Binder | hRXFP1/CHO-K1 cAMP EC50 (nM, avg) [nM]
1 | B1 | 0.08
2 | B2 | 0.27
3 | B3 | 0.38
4 | B4 | 0.65
5 | B5 | 0.09
6 | B6 | 0.12
7 | B7 | 0.11
8 | B8 | 0.14
9 | B9 | 0.28
10 | B10 | 1.85
11 | B11 | 10.5
12 | B12 | 0.34
13 | B13 | 0.32
14 | B14 | 11.1
15 | B15 | 1.88
16 | B16 | 0.09
17 | B17 | 0.46
18 | B18 | 0.24
19 | B19 | 0.33
20 | B20 | 0.83
